Measurements reported in patent US20240026019A1 (Innovent, published 2024).

Legend:
[1] = target: human TNFR2 overexpressed on CHO-S cells (CHOS-hTNFR2) (human) (UniProt P20333); experiment: flow cytometry on CHO-S cells overexpressing human TNFR2 (negative control), MFI-FL2-A; unit taken from the axis Conc log(nM); the curve is flat, so the fit is ambiguous
[2] = target: cynomolgus monkey TNFR2 overexpressed on CHO-S cells (CHOS-cTNFR2) (cynomolgus monkey); experiment: flow cytometry on CHO-S cells overexpressing cynomolgus monkey TNFR2 (negative control), MFI-FL2-A; unit taken from the axis Conc log(nM); the curve stays near the baseline
[3] = target: TNFR2 on human K562 chronic myeloid leukemia cells and on primary human Treg cells (human) (UniProt P20333); experiment: flow cytometry on human K562 CML cells (negative control), MFI(FL2); unit taken from the axis Conc log(nM); the curve stays near the baseline and the value lies beyond the highest concentration shown
[4] = target: T1, human TNFR2 overexpressed on CHO-S cells (CHOS-hTNFR2) (human, UniProt P20333 23-461); experiment: flow cytometry on CHO-S cells overexpressing human TNFR2 (hybridoma antibodies), MFI
T1 construct: also called hTNFR2 CHO-S; human TNFR2 molecule overexpressed on CHO-S cells
T1 sequence: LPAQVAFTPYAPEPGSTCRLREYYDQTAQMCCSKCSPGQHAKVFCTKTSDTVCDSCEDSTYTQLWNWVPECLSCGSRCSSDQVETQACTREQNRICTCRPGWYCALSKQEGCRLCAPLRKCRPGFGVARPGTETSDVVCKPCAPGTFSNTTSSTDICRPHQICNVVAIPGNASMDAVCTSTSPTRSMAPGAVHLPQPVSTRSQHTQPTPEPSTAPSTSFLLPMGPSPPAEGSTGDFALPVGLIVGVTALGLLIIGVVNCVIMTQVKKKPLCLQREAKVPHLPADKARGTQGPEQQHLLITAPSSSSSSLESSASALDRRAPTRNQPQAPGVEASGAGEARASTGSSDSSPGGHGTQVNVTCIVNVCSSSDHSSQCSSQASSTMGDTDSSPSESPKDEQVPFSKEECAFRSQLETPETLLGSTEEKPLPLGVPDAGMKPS
Description: (§1) In the study, the binding of the hybridoma antibodies (3C4, 69B1, and 72G8) of the present invention, after being diluted in a gradient, to a stable CHO-S cell strain overexpressing human TNFR2 on the surface was assayed by using a flow cytometer.
(§2) CHOS-hTNFR2 cells or CHOS-cTNFR2 cells were counted and diluted to 2×10⁶ cells/mL, and added to a U-bottom 96-well plate at 100 μL/well. The mixture was centrifuged at 300 g for 5 min, and the cell medium was removed. The dilutions of the samples (the hybridoma antibodies 3C4, 69B1, and 72G8 and the positive control antibody OPI) (the antibodies were subjected to a two-fold serial dilution in PBS from the maximum antibody concentration of 300 nM) were added to the U-plate, and the cells were resuspended at 100 μL/well and left to stand on ice for 30 min. The suspension was centrifuged at 400 g for 5 min, and the supernatant was removed. The cells were washed twice with PBS. The mixture was centrifuged at 300 g for 5 min, and PBS was removed. […] The mixture was centrifuged at 400 g for 5 min, and the supernatant was removed. The cells were washed 3 times with PBS. The cells were resuspended in 200 μL of 1×PBS and assayed by FACS.

[5] = target: T2, cynomolgus monkey TNFR2 overexpressed on CHO-S cells (CHOS-cTNFR2) (cynomolgus monkey, UniProt P20333 23-461 (human entry)); experiment: flow cytometry on CHO-S cells overexpressing cynomolgus monkey TNFR2 (hybridoma antibodies), MFI
T2 construct: also called cTNFR2 CHO-S
T2 chain: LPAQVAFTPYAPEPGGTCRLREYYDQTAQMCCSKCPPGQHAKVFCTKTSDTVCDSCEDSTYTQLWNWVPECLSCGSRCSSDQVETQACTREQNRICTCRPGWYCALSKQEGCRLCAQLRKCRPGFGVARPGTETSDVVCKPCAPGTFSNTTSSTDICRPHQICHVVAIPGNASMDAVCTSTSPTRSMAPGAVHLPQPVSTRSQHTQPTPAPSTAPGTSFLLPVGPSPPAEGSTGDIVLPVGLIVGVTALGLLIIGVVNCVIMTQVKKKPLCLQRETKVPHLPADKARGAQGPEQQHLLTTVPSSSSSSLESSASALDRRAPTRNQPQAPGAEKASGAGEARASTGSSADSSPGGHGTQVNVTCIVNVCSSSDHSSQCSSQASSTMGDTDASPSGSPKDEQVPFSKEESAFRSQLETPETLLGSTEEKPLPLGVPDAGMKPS
Description: as §1, §2

[6] = target: T3, rh-TNFR2-His (recombinant human TNFR2, His tag) (human, UniProt P20333 23-257); experiment: BLI (ForteBio), antibody on sensor, 100 nM rh-TNFR2-His in solution, 1:1 model
T3 construct: Soluble antigen of the ForteBio assay; not shown: His tag
T3 sequence (looked up): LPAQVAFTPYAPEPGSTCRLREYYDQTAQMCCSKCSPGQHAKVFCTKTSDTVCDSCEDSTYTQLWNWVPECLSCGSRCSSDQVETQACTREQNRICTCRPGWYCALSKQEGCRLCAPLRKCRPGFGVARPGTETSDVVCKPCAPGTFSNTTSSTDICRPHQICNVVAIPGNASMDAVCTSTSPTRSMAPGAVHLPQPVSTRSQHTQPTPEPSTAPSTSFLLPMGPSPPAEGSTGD
Description: (§3) In the present invention, the equilibrium dissociation constant (KD) for the binding of the 3 exemplary chimeric antibodies of the present invention described above to human TNFR2 (hTNFR2), cynomolgus monkey TNFR2 (cTNFR2), murine TNFR2(mTNFR2), and human TNFR1(hTNFR1) was determined by biological optical interferometry (ForteBio). For comparison, the equilibrium dissociation constant (KD) of a positive control antibody OPI (humanized antibody SBT-002e in WO 2017083525, VH sequence of SEQ ID NO: 58, VL sequence of SEQ ID NO: 59) was determined.
(§4) The ForteBio affinity assay was performed according to the prior art (Estep, P, et al., High throughput solution based measurement of antibody-antigen affinity and epitope binning. MAbs, 2013.5(2): p. 270-278). Briefly, a sensor was equilibrated offline in an assay buffer for 30 min, and was equilibrated online for 60 s to establish a baseline. The purified antibodies obtained as described above were loaded online onto an AHQ sensor (ForteBio) for the ForteBio affinity assay. The sensor with the loaded antibodies was then exposed to each of 100 nM hTNFR2, cTNFR2, mTNFR2, and hTNFR1 antigens for 5 min before transferring the sensor to an assay buffer for 5 min of dissociation for dissociation rate measurement. The kinetic analysis was performed using a 1:1 binding model.

[7] = target: T4, CYNO-TNFR2-His (cynomolgus monkey TNFR2, His tag) (cynomolgus monkey, UniProt A0A2K5VET2 132-366); experiment: BLI (ForteBio), antibody on sensor, 100 nM CYNO-TNFR2-His in solution, 1:1 model
T4 construct: Soluble antigen of the ForteBio assay; also called cTNFR2; not shown: His tag
T4 sequence: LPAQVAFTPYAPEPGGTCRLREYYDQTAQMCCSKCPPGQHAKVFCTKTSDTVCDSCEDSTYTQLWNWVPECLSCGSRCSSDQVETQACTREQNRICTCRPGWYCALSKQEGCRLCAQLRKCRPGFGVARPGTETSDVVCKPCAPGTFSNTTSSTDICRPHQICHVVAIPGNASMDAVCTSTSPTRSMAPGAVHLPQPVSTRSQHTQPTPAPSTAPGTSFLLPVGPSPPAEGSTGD
Description: as §3, §4

[8] = target: T1, human TNFR2 overexpressed on CHO-S …; experiment: flow cytometry on CHO-S cells overexpressing human TNFR2 (chimeric antibodies), MFI-FL2-A; unit taken from the axis Conc log(nM); the curve is still rising to about 29000 at log(nM) 2.5
Description: (§5) In the study, the binding of the chimeric antibodies of the present invention, after being diluted in a gradient, to a stable CHO-S cell strain overexpressing human TNFR2 on the surface was assayed by using a flow cytometer. cDNAs encoding human TNFR2 (SEQ ID NO: 60) and cynomolgus monkey TNFR2 (SEQ ID NO: 61) were cloned into pCH01.0 vectors (Invitrogen), which were transfected into CHO-S cells (Invitrogen) to produce CHO-S cells overexpressing human TNFR2 (CHOS-hTNFR2) and CHO-S cells overexpressing cynomolgus monkey TNFR2 (CHOS-cTNFR2).
(§6) CHOS-hTNFR2 cells or CHOS-cTNFR2 cells were counted and diluted to 2×10⁶ cells/mL, and added to a U-bottom 96-well plate at 100 μL/well. The mixture was centrifuged at 300 g for 5 min, and the cell medium was removed. The dilutions of the samples (the chimeric antibodies 3C4, 69B1, and 72G8 and the positive control antibody OPI) (the antibodies were subjected to a three-fold serial dilution in PBS from the maximum antibody concentration of 300 nM) were added to the U-plate, and the cells were resuspended at 100 μL/well and left to stand on ice for 30 min. The suspension was centrifuged at 400 g for 5 min, and the supernatant was removed. The cells were washed twice with PBS. The mixture was centrifuged at 300 g for 5 min, and PBS was removed. […]

[9] = target: T2, cynomolgus monkey TNFR2 overexpressed …; experiment: flow cytometry on CHO-S cells overexpressing cynomolgus monkey TNFR2 (chimeric antibodies), MFI-FL2-A; unit taken from the axis Conc log(nM); the curve is still rising at log(nM) 2.5, no upper plateau
Description: as §5, §6

IgG (antibody)
EC50 [1]: 13500 µM | EC50 [2]: 0.00112 µM | EC50 [3]: 0.0223 µM

B1: hybridoma antibody 69B1 (antibody, V domains shown)
VH: QIQLVQSGPELKKPGETVKISCKASGYTFTDYSMNWVKQAPGKGLKWMGWLNTETGEPIYADDFKGRFVFSLETSASTAYLEINNLNDEDTATYFCAREAIYYGTSYVLDYWGQGTSVTVSS
VL: DIVLTQSPASLAVSLGQRATISCRASESVEYYGTNFMQWYQQKPGQPPKLLIYSASNVESGVPARFSGSGSGTDFSLNIHPVEEDDIAVYFCQQSRKDPSTFGEGTNLEIK
notes: Murine antibody from the hybridoma (detected with anti-mouse IgG)
EC50 (read off the curve) [4]: ~0.001 µM | EC50 (read off the curve) [5]: ~0.001 µM

B2: chimeric antibody 72G8 (antibody, human IgG1, kappa, V domains shown)
VH: EVQLQQSGAELARPGASVMLSCKASGYTFTSYWMQWLKQRPGQGLEWIGAIYPGDGDTRYTQKFKGKATLTADKSSSTAYMQLSSLASEDSAVYYCVRDDGLYYAMDYWGQGTSVTVSS
VL: QIVLTQSPTIMSASLGERVTMTCTASSSVSSSYLHWYQQKPGSSPKLWIYSTSNLASGVPARFSGSGSGTSYSLTISSMEAEDAATYYCHQYHRSPPTFGGGTKLEIKR
Kd [6]: 0.00451 µM | koff [6]: 0.00515 s⁻¹ | kon [6]: 1.14e+06 M⁻¹ s⁻¹ | Kd [7]: 0.00311 µM | koff [7]: 0.00509 s⁻¹ | kon [7]: 1.64e+06 M⁻¹ s⁻¹ | EC50 [8]: 0.0284 µM | EC50 [9]: 0.122 µM
